Absorbance data for one substance are collected here from patent publication US20240010695A1.

Holding throughout (test): polyreactivity ELISA, antigen coated, 10 ug/mL binder
(In general: In an ELISA, binding on a coated surface is turned into a signal by an enzyme label.)

In assay [1] the target is keyhole limpet hemocyanin.
Assay [2] has as its target human serum albumin (human) (UniProt P02768).
Assay [3] concerns the target insulin.

On to Bococizumab (antibody), for which the absorbance at 450 nm normalized against the no-antigen control in assay [1] came out at 38.8; in assay [2] it was 16.6; in assay [3] it was 21.4.
